Source: US20040005550A1, “Methods and compositions useful for targeting activated vitronectin receptor alphavbeta3” (The Scripps Research Institute, priority 1998, published 2004)
pEC50, pKd: −log10 of the molar value. Each block holds one substance with its values, some of them ahead of it.

Legend:
[1] = target: human αvβ3 integrin on cells (human) (UniProt P06756); experiment: flow cytometry, AP5-treated αvβ3-CHO cells; 1 µM Integrilin against WOW-1 Fab
[2] = target: human αvβ3 integrin on cells (human) (UniProt P06756); experiment: flow cytometry, AP5-treated αvβ3-CHO cells; 1 µM Integrilin against aPB
[3] = target: purified αIIbβ3 from human platelets (human) (UniProt P08514); experiment: ELISA on purified integrin, 50 µM MnCl2; half-maximal binding
[4] = target: human αvβ3 integrin on cells (human) (UniProt P06756); experiment: unstimulated B-lymphoblastoid cells; summary in the description, differs from the 2,600 nM of Example 8
[5] = target: human αvβ3 integrin on cells (human) (UniProt P06756); experiment: flow cytometry, JY cells, 100 nM phorbol myristate acetate for 15 min
[6] = target: human αvβ3 integrin on cells (human) (UniProt P06756); experiment: flow cytometry binding isotherm, αvβ3-CHO cells, activating antibody AP5
[7] = target: human αvβ3 integrin on cells (human) (UniProt P06756); experiment: flow cytometry binding isotherm, unstimulated JY cells, one-site fit
[8] = target: human αvβ3 integrin on cells (human) (UniProt P06756); experiment: flow cytometry binding isotherm, αvβ3-CHO cells, no treatment
[9] = target: purified αvβ3 receptors from human placenta (human) (UniProt P06756); experiment: ELISA on purified integrin, 50 µM MnCl2; half-maximal binding
[10] = target: human αvβ3 integrin on cells (human) (UniProt P06756); experiment: flow cytometry binding isotherms, JY cells
[11] = target: human αvβ3 integrin on cells (human) (UniProt P06756); experiment: flow cytometry binding isotherm, JY cells stimulated with phorbol myristate acetate, one-site fit

human αvβ3 integrin on cells (human), sequence (P06756 31-1048, chain 1 of 2): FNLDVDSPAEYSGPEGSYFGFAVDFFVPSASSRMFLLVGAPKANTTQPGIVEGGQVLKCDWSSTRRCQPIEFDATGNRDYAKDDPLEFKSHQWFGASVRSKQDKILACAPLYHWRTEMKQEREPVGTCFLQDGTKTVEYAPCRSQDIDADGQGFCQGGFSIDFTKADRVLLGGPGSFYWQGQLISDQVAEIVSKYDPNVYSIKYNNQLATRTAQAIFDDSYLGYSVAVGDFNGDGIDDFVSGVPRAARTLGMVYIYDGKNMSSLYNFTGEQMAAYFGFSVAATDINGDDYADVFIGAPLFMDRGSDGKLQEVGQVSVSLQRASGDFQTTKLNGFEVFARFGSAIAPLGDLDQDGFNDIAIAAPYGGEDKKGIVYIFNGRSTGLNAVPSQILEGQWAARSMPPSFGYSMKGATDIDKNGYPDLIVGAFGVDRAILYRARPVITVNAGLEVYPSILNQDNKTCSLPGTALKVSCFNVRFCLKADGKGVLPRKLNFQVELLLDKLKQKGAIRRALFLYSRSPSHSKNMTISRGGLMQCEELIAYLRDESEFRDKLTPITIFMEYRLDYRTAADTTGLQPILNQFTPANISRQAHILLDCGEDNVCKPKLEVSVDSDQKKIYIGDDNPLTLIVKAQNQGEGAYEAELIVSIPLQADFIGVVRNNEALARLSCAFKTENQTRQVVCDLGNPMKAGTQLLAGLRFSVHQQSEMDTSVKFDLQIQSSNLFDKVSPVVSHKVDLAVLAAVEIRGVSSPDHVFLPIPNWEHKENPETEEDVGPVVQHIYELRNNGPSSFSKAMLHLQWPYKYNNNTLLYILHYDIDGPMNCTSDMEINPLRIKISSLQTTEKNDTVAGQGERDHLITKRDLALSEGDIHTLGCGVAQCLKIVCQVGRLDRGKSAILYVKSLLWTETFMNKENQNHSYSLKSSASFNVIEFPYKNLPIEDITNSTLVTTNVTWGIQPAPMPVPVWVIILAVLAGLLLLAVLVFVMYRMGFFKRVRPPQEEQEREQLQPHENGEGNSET
human αvβ3 integrin on cells (human), sequence (P05106 27-788, chain 2 of 2, further chain): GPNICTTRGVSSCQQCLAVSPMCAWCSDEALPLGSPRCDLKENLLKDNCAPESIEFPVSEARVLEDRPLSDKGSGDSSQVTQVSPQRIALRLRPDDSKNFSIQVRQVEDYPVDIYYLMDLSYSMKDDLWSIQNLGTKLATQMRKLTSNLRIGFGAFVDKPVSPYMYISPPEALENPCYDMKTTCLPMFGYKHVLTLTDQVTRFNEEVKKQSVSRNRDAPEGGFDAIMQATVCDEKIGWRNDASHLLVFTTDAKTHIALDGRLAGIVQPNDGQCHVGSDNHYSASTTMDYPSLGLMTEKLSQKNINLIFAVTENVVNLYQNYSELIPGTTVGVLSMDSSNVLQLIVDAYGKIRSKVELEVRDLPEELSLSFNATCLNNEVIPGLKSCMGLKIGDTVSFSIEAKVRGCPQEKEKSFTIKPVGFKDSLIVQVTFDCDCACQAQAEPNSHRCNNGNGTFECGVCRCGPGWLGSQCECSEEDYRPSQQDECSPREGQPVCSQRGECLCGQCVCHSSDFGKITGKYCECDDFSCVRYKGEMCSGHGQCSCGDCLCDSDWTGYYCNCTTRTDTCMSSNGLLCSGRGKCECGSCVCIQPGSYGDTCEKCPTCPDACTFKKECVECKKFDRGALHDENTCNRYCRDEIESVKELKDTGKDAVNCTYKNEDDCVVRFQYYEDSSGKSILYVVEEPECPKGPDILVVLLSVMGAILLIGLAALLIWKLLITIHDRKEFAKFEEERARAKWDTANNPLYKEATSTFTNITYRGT
purified αvβ3 receptors from human placenta (human), sequence (P06756 31-1048 limits assumed, chain 1 of 2): as the sequence (P06756 31-1048, chain 1 of 2) above
purified αvβ3 receptors from human placenta (human), sequence (P05106 27-788 limits assumed, chain 2 of 2, further chain): as the sequence (P05106 27-788, chain 2 of 2, further chain) above

Substance: Integrilin (peptide)
percent inhibition of WOW-1 Fab binding [1]: < 20% | percent inhibition of aPB binding [2]: < 20%

pEC50 [3]: 7.30
Substance: PAC1 Fab

Substance: WOW-1 Fab
pKd [4]: 5.62 | fold increase in specific binding with phorbol myristate acetate against no agonist [5]: 2.4 fold | Bmax [6]: 65 units | pKd [6]: 6.92 | pKd [7]: 5.59 | maximal binding (arbitrary fluorescence units) [7]: 24.8 | Bmax [8]: 62 units | pKd [8]: 6.29 | pEC50 [9]: 7.40 | fold increase in binding affinity with phorbol myristate acetate against unstimulated cells [10]: > 30 fold | pKd [11]: 7.10 | maximal binding [11]: 23.5 units
